B1: SmL (Lac2), Steccherinum murashkinskyi laccase (Metuloidea murashkinskyi) (protein)
chain: AQIGPVTDLHITNANISPDGFSRPAVLAGGTFPGPTIAGNTGDNFQITVFNDLTDPSMLTDTSIHWHGLFQKGTNWADGPAFVTQCPIITGQSFDYNFNVPGQAGTFWYHSHLSTQYCDGLRGPFVVYDPNDPNASLYDVDDDTTIITLADWYHTLAQQEPIGAAITADATLINGLGRSFTNTTASPLSVITVQSGKRYRMRLVSISCDPNYLFSIDGHDMTIIEVDGVNSQQLTVDQIQIFAAQRYSFVLNANQPVGNYWIRAQPNSGGQGFDGGINSAILRYEGATVEDPTTTAPTTFSNPLVETDLHPLADLGVPGQPFRGGADDPLVLNLAFANGRFSIDGVSFVPPTVPVLLQILSGAQNAQDLLPAGSVISLPSNSVIEVALPAGAAGGPHPFHLHGHNFAVVQSANNATPNYVNPIWRDTVSIGGTGDNVTIRFTTNNPGPWFLHCHIDWHLEAGFAIVFAEDIPDTASANPVPQAWSDLCPAYDQAHNISTATRQDFQILCICGILHVNFRQEERCGIS
notes: native secreted enzyme purified from culture liquid
B2: AfL (LacA), Antrodiella faginea laccase (Antrodiella faginea) (protein)
chain: AIGPVADLKIVNANIQPDGFTRPAVLAGGTFPGPLIKGNKGDNFQLNVIDELENEDMLKSTSIHWHGFFQHGTNWADGPAFVNQCPITTGHSFLYNFHVPDQAGTFWYHSHLSTQYCDGLRGPMVVYDPHDPLKQLYDVDDESTVMTLADWYHTLARQEPPGPVTPDSTLINGLGRAPGQTTPSELAVLTVKRGTRYRIRLINISCEPNYHYSIDNHDLTVIEADGVSTQSLTVSSLTIFAGQRYSFILNANQPVGNYWIRAQPNDAADVTFNGGINSAILRYEGAPVAEPNTTAGPDNTPLLEVNIRPFVFTPVPGQPHAGGADFVKNLLFSFNGTNFQVDNVSFVPPTVPILLQILSGAHTAQDLMPAGSIIPLPKNAVIEFSMPGGVVGGGHPIHLHGHNFWVIRSANSSVYNYNDPVIRDVVNIGTTGDNVTIRFETNNPGPWFLHCHIDWHLDLGFAVVMAEDIPDAAAANPVPAAWNELCPLYDALTPGNQ
notes: as for B1

Tests used:
purified protein [1] = substrate: CCn1c(=NN=c2sc3cc(S(=O)(=O)O)ccc3n2CC)sc2cc(S(=O)(=O)O)ccc21; assay: purified protein; format: biochemical, Metuloidea murashkinskyi; conditions: air-saturated 0.1 M Na-citrate-phosphate buffer, pH 5.5, 23 °C, O2 co-substrate, free enzyme
purified protein [2] = substrate: CCn1c(=NN=c2sc3cc(S(=O)(=O)O)ccc3n2CC)sc2cc(S(=O)(=O)O)ccc21; assay: purified protein; format: biochemical, Antrodiella faginea; conditions: air-saturated 0.1 M Na-citrate-phosphate buffer, pH 5.5, 23 °C, O2 co-substrate, free enzyme

Protein | Km (purified protein [1]) [µM] | kcat (purified protein [1]) [s⁻¹] | kcat/Km (purified protein [1]) [M⁻¹ s⁻¹] | Km (purified protein [2]) [µM] | kcat (purified protein [2]) [s⁻¹] | kcat/Km (purified protein [2]) [M⁻¹ s⁻¹]
B1 | 71.7 ± 2.9 | 33.3 ± 1.4 | 460000 |  |  | 
B2 |  |  |  | 4.9 ± 0.4 | 32.7 ± 1.1 | 6.67e+06

From article PMC12347638, “Fungal Laccases with High and Medium Redox Potential: Is the T1 Center Potential a Key Characteristic of Catalytic Efficiency in Heterogeneous and Homogeneous Reactions?” (International Journal of Molecular Sciences, 2025)
